Results from publication PMC5430804, “Structural and biochemical insights of CypA and AIF interaction” (Scientific Reports, 2017).

B1: CypA(121-131) + (99–109) + (83-90), three peptides tested in combination (other)
peptide 1: WLDGKHVVFGK
peptide 2: SMANAGPNTNG
peptide 3: FEDENFIL
notes: Cyclophilin A (CypA), residues 99-109; Cyclophilin A (CypA), residues 83-90; A mixture of separate peptides; source: synthetic peptides, combined; copies: + +
B2: CypA(121-131) + (99–109), two peptides tested in combination (other)
peptide 1: WLDGKHVVFGK
peptide 2: SMANAGPNTNG
notes: Cyclophilin A (CypA), residues 99-109; A mixture of separate peptides; source: synthetic peptides, combined
B3: CypA(55-69) + (49–62), two peptides tested in combination (other)
peptide 1: RIIPGFMCQGGDFTR
peptide 2: KGSCFHRIIPGFMC
notes: Cyclophilin A (CypA), residues 55-69; Cyclophilin A (CypA), residues 49-62; A mixture of separate peptides; source: synthetic peptides, combined
B4: CypA(55-69) + (67–79), two peptides tested in combination (other)
peptide 1: RIIPGFMCQGGDFTR
peptide 2: FTRHNGTGGKSIY
notes: Cyclophilin A (CypA), residues 55-69; Cyclophilin A (CypA), residues 67-79; A mixture of separate peptides; source: synthetic peptides, combined
B5: CypA(99-109) + (83–90), two peptides tested in combination (other)
peptide 1: SMANAGPNTNG
peptide 2: FEDENFIL
notes: Cyclophilin A (CypA), residues 99-109; Cyclophilin A (CypA), residues 83-90; A mixture of separate peptides; source: synthetic peptides, combined
B6: CypA(67-79) + (49–62), two peptides tested in combination (other)
peptide 1: FTRHNGTGGKSIY
peptide 2: KGSCFHRIIPGFMC
notes: Cyclophilin A (CypA), residues 67-79; Cyclophilin A (CypA), residues 49-62; A mixture of separate peptides; source: synthetic peptides, combined
B7: AIF(370-394) synthetic peptide (peptide, UniProt O95831 370-394, looked up)
peptide: QSVGVSSGKLLIKLKDGRKVETDHI
notes: also called AIF peptide; source: synthetic peptide
B8: CypA(121-131) + (83–90), two peptides tested in combination (other)
peptide 1: WLDGKHVVFGK
peptide 2: FEDENFIL
notes: Cyclophilin A (CypA), residues 83-90; A mixture of separate peptides; source: synthetic peptides, combined
B9: CypA(55-69) peptide with R69 replaced by alanine (peptide, UniProt P62937 55-69, looked up)
peptide: RIIPGFMCQGGDFTA
notes: Cyclophilin A (CypA), residues 55-69, R69 replaced by alanine; also called CypA(55-69)R69; source: synthetic peptide
B10: CypA(55-69) + (67–79) + (49-62), three peptides tested in combination (other)
peptide 1: RIIPGFMCQGGDFTR
peptide 2: FTRHNGTGGKSIY
peptide 3: KGSCFHRIIPGFMC
notes: Cyclophilin A (CypA), residues 55-69; Cyclophilin A (CypA), residues 67-79; Cyclophilin A (CypA), residues 49-62; A mixture of separate peptides; source: synthetic peptides, combined; copies: + +

What was measured:
Conditions in all cases: both partners purified
[1] = molecular target: T1, Apoptosis Inducing Factor, pro-apoptotic form AIF(Δ1-121) (UniProt O95831 122-613); assay: EnSpire label-free direct binding assay; direct binding of CypA peptides, CypA or CypA R55A with AIF(370-394) or AIF(Δ1-121); details (who was immobilised) in the Supplementary Information
T1 construct: also called apoptogenic form of AIF
T1 sequence (O95831 122-613, stated change not applied): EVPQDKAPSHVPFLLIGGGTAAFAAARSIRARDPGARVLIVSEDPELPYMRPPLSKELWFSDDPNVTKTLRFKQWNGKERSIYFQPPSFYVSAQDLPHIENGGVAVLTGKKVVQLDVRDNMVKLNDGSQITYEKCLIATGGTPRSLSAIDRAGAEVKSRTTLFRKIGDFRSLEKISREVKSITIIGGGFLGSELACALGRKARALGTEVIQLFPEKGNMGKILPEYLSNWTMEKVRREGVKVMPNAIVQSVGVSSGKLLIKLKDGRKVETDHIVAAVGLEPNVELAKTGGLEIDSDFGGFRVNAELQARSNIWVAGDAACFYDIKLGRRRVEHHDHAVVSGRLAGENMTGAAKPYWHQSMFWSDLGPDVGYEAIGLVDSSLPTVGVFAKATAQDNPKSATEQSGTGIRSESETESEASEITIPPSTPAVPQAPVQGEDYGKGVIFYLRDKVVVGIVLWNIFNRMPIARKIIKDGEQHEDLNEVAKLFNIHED

[2] = molecular target: B7; assay: as above
[3] = molecular target: T2, His-tagged Cyclophilin A (CypA) (UniProt P62937 1-165); assay: ITC; AIF(370-394) 0.7 mM injected (20 x 2 μL) into CypA 5 μM, 25 °C, PBS 1X with 1 mM DTT, pH 7.4; single-site model; triplicate
T2 construct: Cyclophilin A (CypA), peptidyl-prolyl isomerase; Uniformly 15N-labelled for the NMR experiments, unlabelled elsewhere; also called CypA wild type; 15N-CypA; source: bacteria, IPTG-induced, purified (His-trap HP, size exclusion chromatography)
T2 sequence (P62937 whole entry): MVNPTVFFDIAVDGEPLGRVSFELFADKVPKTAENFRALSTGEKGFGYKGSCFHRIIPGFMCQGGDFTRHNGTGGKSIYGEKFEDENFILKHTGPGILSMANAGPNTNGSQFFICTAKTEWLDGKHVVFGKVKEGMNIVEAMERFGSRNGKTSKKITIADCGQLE

[4] = molecular target: T2, His-tagged Cyclophilin A (CypA); assay: EnSpire label-free direct binding assay; direct binding of CypA peptides, CypA or CypA R55A with AIF(370-394) or AIF(Δ1-121); details (who was immobilised) in the Supplementary Information
[5] = molecular target: T3, CypA R55A mutant (UniProt P62937 1-165, R55A); assay: as above
T3 construct: Cyclophilin A (CypA) with R55A; the R55A mutant corresponding to His-tagged CypA; The starting construct carried a Myc tag; also called R55A CypA mutant; R55A mutated CypA; source: prepared starting from the construct pCMV6-AC-Myc-CypA^R55A
T3 sequence (P62937 whole entry R55A): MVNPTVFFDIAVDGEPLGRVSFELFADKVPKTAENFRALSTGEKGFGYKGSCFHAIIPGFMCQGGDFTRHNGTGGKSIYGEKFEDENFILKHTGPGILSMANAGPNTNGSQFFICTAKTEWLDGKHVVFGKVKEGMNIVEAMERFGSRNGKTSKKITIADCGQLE

| Kd [1] [µM] | Kd [2] [µM] | Kd [3] [µM] | Kd [4] [µM] | Kd [5] [µM] | Binder |
| --- | --- | --- | --- | --- | --- |
| 38.8 ± 4.6 | 268 ± 9.65 | – | – | – | B1 |
| 27.2 ± 5.8 | 43 ± 6.8 | – | – | – | B2 |
| 2.2 ± 0.7 | 4.6 ± 1.3 | – | – | – | B3 |
| 51.4 ± 12.2 | 34.9 ± 8.1 | – | – | – | B4 |
| – | 304 ± 10.8 | – | – | – | B5 |
| 2.8 ± 0.9 | 3.1 ± 1.3 | – | – | – | B6 |
| – | – | 6 | 3 ± 0.6 | 3.1 ± 0.7 | B7 |
| 31.3 ± 2.8 | 87 ± 5.8 | – | – | – | B8 |
| > 1000 | – | – | – | – | B9 |
| 25.2 ± 5 | 20.7 ± 6.5 | – | – | – | B10 |
